Experimental data published in publication PMC9894248, “Alanine synthesized by alanine dehydrogenase enables ammonium-tolerant nitrogen fixation in Paenibacillus sabinae T27”.

Columns and labels:
AdeR [1] = target: T1, AdeR (Paenibacillus sabinae T27, UniProt X4ZCB7 1-417); test: EMSA; AdeR 100-600 nM; EMSA: 20 ul, 1 ug poly[d(A-T)], 0.3 nM probe, 30 min, 25 C; binding buffer (given for protein dialysis) 20 mM HEPES pH 7.6, 1 mM EDTA, 10 mM (NH4)2SO4, 1 mM DTT, 0.2% Tween 20, 30 mM KCl. SPR: SA chip, 250 RU DNA, GlnR 0-500 nM with or without 25 nM GS; details: protein: recombinant; tags: N-His6; label: 3' DIG (Methods); blunt
T1 sequence: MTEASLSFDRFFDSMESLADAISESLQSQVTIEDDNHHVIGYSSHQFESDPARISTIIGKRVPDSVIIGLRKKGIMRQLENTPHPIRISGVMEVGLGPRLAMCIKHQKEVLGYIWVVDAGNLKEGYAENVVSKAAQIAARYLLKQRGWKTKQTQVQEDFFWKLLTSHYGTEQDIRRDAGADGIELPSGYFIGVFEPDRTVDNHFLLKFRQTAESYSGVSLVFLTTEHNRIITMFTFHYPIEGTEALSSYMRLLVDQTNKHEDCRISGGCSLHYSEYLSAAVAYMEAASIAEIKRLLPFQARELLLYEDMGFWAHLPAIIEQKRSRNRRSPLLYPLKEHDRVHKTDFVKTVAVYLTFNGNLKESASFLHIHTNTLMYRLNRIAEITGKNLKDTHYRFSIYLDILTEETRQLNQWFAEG

AdeR [2] = target: T1, AdeR; test: EMSA; AdeR 100-600 nM; legend misprints 'mutated GlnR-binding site'; EMSA: 20 ul, 1 ug poly[d(A-T)], 0.3 nM probe, 30 min, 25 C; binding buffer (given for protein dialysis) 20 mM HEPES pH 7.6, 1 mM EDTA, 10 mM (NH4)2SO4, 1 mM DTT, 0.2% Tween 20, 30 mM KCl. SPR: SA chip, 250 RU DNA, GlnR 0-500 nM with or without 25 nM GS; details: protein: recombinant; tags: N-His6; label: 3' DIG (Methods); blunt
GlnR [3] = target: T2, GlnR (Paenibacillus sabinae T27, UniProt X4ZZY3 1-136); test: EMSA; GlnR 4-1024 nM; EMSA: 20 ul, 1 ug poly[d(A-T)], 0.3 nM probe, 30 min, 25 C; binding buffer (given for protein dialysis) 20 mM HEPES pH 7.6, 1 mM EDTA, 10 mM (NH4)2SO4, 1 mM DTT, 0.2% Tween 20, 30 mM KCl. SPR: SA chip, 250 RU DNA, GlnR 0-500 nM with or without 25 nM GS; details: protein: recombinant; tags: N-His6; chain copies: 2; label: 3' DIG (Methods); blunt
T2 sequence: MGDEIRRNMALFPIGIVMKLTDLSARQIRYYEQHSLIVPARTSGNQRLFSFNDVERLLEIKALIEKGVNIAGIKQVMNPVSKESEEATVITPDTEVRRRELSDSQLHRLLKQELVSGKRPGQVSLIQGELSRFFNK

GlnR [4] = target: T2, GlnR; test: SPR; GlnR alone, 0-500 nM; affinity significantly higher than site II; EMSA: 20 ul, 1 ug poly[d(A-T)], 0.3 nM probe, 30 min, 25 C; binding buffer (given for protein dialysis) 20 mM HEPES pH 7.6, 1 mM EDTA, 10 mM (NH4)2SO4, 1 mM DTT, 0.2% Tween 20, 30 mM KCl. SPR: SA chip, 250 RU DNA, GlnR 0-500 nM with or without 25 nM GS; details: protein: recombinant; tags: N-His6; chain copies: 2; label: 5' biotin on capture linker S3; 3' overhang 20 nt on strand 2, annealed to capture linker (strand 3)

B1: ald1 promoter 40-bp AdeR site (aldP1) (dsDNA)
DNA 1: GAATGAAAAACTGACCTTCTCATTGTGATAAAACACAATC
DNA 2: GATTGTGTTTTATCACAATGAGAAGGTCAGTTTTTCATTC
binding result (AdeR [1]): binds

B2: ald1 promoter 40-bp mutated AdeR site (aldP1M) (dsDNA)
DNA 1: GAATGAAAAACTGACCTTGGATCCGTGATAAAACACAATC
DNA 2: GATTGTGTTTTATCACGGATCCAAGGTCAGTTTTTCATTC
binding result (AdeR [2]): no binding

B3: nif promoter GlnR site I EMSA probe (nifR1) (dsDNA)
DNA 1: AACGGAAACATGATACATATGTGTAATGTAATCTGACATTTGT
DNA 2: ACAAATGTCAGATTACATTACACATATGTATCATGTTTCCGTT
binding result (GlnR [3]): binds

B4: nif promoter GlnR site II EMSA probe (nifR2) (dsDNA)
DNA 1: TTTTCAAGAAAGGTTGGAGTCAGGTTAACTGACACGTCGGATG
DNA 2: CATCCGACGTGTCAGTTAACCTGACTCCAACCTTTCTTGAAAA
binding result (GlnR [3]): binds

B5: SPR probe GlnR site I (TS1) (dsDNA)
DNA 1: ATACATATGTGTAATGTAATCTGACATTTGTTTTGACGA
DNA 2: TCGTCAAAACAAATGTCAGATTACATTACACATATGTATCCTACCCTACGTCCTCCTGC
DNA 3: GCAGGAGGACGTAGGGTAGG
binding result (GlnR [4]): binds
